Target: T1, EpCAM (UniProt P16422 P16422:24-265)
T1 sequence: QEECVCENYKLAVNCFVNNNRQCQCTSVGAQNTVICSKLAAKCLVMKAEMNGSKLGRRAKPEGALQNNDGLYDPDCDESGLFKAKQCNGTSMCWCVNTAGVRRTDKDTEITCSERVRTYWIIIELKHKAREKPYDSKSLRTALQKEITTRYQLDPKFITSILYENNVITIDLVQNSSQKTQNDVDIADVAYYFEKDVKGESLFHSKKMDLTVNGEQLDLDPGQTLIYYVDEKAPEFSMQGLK
Assay: stated only; no assay details

B1: Aptamer 4 (ssDNA)
DNA: CCCCCCGAATCACATGACTTGGGCGGGGGTCG
modifications: 6-T 3' tail as spacer for biotin (shown in figure)
B1: binds.

From patent US20200032265, “Oligonucleotide Probes and Uses Thereof” (CARIS SCIENCE, INC., published 2020)
